PMC3668522 (FEBS Open Bio, 2013)

Target: the molecule itself
Assay: cross-linking; SDS-PAGE of the purified CTD polypeptide: 16-kDa dimer band beside the 8-kDa monomer band; dimer formation stimulated by the oxidizing agent Cu(II)-(1,10-phenanthroline)3 and cleaved by dithiothreitol (disulfide bond)

B1: C-terminal domain (CTD) polypeptide of Arabidopsis thaliana metal tolerant protein 1 (AtMTP1) (domain or fragment, UniProt Q9ZT63 320-398, looked up)
chain: MESTPREIDATKLEKGLLEMEEVVAVHELHIWAITVGKVLLACHVNIRPEADADMVLNKVIDYIRREYNISHVTIQIER
- stoichiometry N: 2
